# Measurements as given in the nanobody polyreactivity screen of Harvey et al. (2022).
# Assay: yeast display, Sf9 membrane polyspecificity reagent, FACS + sequencing; frameworks hold sequencing errors
# Summary of the method: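 Nanobodies came from a synthetic yeast display library in Saccharomyces cerevisiae BJ5465, induced with galactose for 36–48 hours and stained for 1 hour at 4 °C with 10% biotinylated, detergent-solubilized Sf9 membrane reagent. Cells were enriched on streptavidin microbeads and then FACS-sorted, with low and high (top ~1%) gates set on anti-HA fluorescence for expression and streptavidin fluorescence for reagent binding. Each polyreactivity label reflects the gate a clone came from. Genes were amplified by colony PCR, sequenced by MiSeq 2 × 250 and filtered by CDR length.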
row,Sequence,polyreactivity (PSR sort gate)
1,QVQLVESGGGLVQAGGSLRLSCAASGITFLSNAMGWYRQAPGKERELVAAISRGGGTTYYADSVKGRFTISRDNAKNTVYLQMNSLKPEDTAVYYCATESTHTRRSWYEYWGQGTQVTVSS,high polyreactivity
2,QVQLVESGGGLVQAGGSLRLSCAASGITFLVYVMGWYRQAPGKERELVAAISSGGSTYYADSVKGRFTISRDNAKNTVYVQMNSLKPEDTAVYYCAAERKLYGLYDYWGQGTQVTVSS,low polyreactivity
3,QVQLVESGGGLVQAGGSLRLSCAASGITFNDYTMGWYRQGPGKERELVAVNTKTGSRTYYADSVKGRFTISRDNAKNTVYLQMNSLKPEDTAVYYCNALYYIHYYQGYGYWGQGTQVTVSS,high polyreactivity
4,QVQLVESGGGLVQAGGSLRLSCAASGITFNQYVMGWYRQAPGKESELVAAISRSGATTYYADSVKGRFTISRDNAKNTVYLQMNSLKPEDTAVYYCAVRGSVSYTRYGYWGQGTQVTVSS,high polyreactivity
5,QVQLVESGGGLVQAGGSLRLSCAASGITFNRNAMGWYRQAPGKERELVAAISSDGNTNYADSVKGRFTISRDNAKNTVYLQMNSLKPEDTAVYYCAAPVIQITDVWYDAETYPDYDYWGQGTQVTVSS,low polyreactivity
6,QVQLVESGGGLVQAGGSLRLSCAASGITFNSYAKGWYRQAPGKERELVASISWIGGSTYYADSVKLRFTISRDNAKNTVYLQMNSLKPEDTAVYYCAVDKGTDYYYEVDYWGQGTQVTVSS,low polyreactivity
7,QVQLVESGGGLVQAGGSLRLSCAASGITFNVYAMGWYRQAPGKERELVAAISYNGGRTYYADSVKGRFTISRDNAKNTVYLPMNSLKPEDTAVYYCAAQWPWGPYDYWGQGTQVTVSS,high polyreactivity
8,QVQLVESGGGLVQAGGSLRLSCAASGITFNYYAMGWYRQAPGKERELVATINRSGGTTYYADSVKGRITISRDNAKNTVYLQMNSLKPEDTAVYYCNARYTSRGRYHSGYDYWGQGTQVTVSS,high polyreactivity
9,QVQLVESGGGLVQAGGSLRLSCAASGITFPANARGWYRPAPGKERELVAAISSSGDSTYYADSVKGRFTISRDNAKNTVYFQMNILKPEDTAVYYCAAKDYVWGQGTQVTVSS,low polyreactivity
10,QVQLVESGGGLVQAGGSLRLSCAASGITFPAYAMGWYRQAPGKERELVAAISRRGGSTYYADSVKGRFTISRDYAKNTVYLQMNSLKPEDTAVYYCNADIKQRSDRYDYWGQGTQVTVSS,high polyreactivity
11,QVQLVESGGGLVQAGGSLRLSCAASGITFPDYAMGWYRQAPGKERELVATISSSGGNTYYADSVKGRFTISRDNAKNTVYLQMNSLKPEDTAVYYCATVSYYWGYDYWGQGTQVTVSS,low polyreactivity
12,QVQLVESGGGLVQAGGSLRLSCAASGITFPDYDMGWYRQAPGKERELVAAITYRSGSTYYADSVKGRFTISRDNAKNTVYLQMNSLKPEDTAVYYCNKYGQVPGYFSLDYWGQGTQVTVSS,high polyreactivity
13,QVQLVESGGGLVQAGGSLRLSCAASGITFPGNAMGWYRQAPGKERELVAGISDGDSTNYADSVKARFTISRDNAKNTVYLQMNSLKPEDTAVYYCARDTELYVRWLDYWGQGTQVTVSS,low polyreactivity
14,QVQLVESGGGLVQAGGSLRLSCAASGITFPGNAMGWYRQAPGKERELVAVISSGTSTNYADSVKGRFTISRDNAKYTVYLQMNSLKPEDTAVYYCATSLYYYPYYYWGQGTQVTVSS,low polyreactivity
15,QVQLVESGGGLVQAGGSLRLSCAASGITFPGYAMGWYRQAPGKEWELVAAISTSGGSTYYADSVKGRFTISRDNAKNTVYLQMNSLKPEATAVYYCNARLVSYSYEEMDYWGQGTQVTVSS,low polyreactivity
16,QVQLVESGGGLVQAGGSLRLSCAASGITFPGYARGWYRQAPGKASELVAAIDWSGDGTYYADSVKGRFTISRDNAKNTVYLQMNSLKPEDTAVYYCAKDNYPNHCTVRAVIYDYWGQGTQVTVSS,low polyreactivity
17,QVQLVESGGGLVQAGGSLRLSCAASGITFPRYAMGWYRQAPGKERELVARITSGGRTNYADSVKGRFTISRDNAKNTVYLQMYSLKPEDTAVYYCNAVGWVRSQVRLGYWGQGTQVTVSS,high polyreactivity
18,QVQLVESGGGLVQAGGSLRLSCAASGITFPRYVMGWYRQAPGKEREFVAAINYSGGRTYYADSVKGRFTISRDNAKNTVYLQMKSLKPEDTAVYYCAVDLHVWPFWFDYWGQGTQVTVSS,high polyreactivity
19,QVQLVESGGGLVQAGGSLRLSCAASGITFPSYTMGWYRQAPGKERELVATIRNGGSTYYADSVKGRFTISRDNAKNTVYLHMNSLKPEDTAVYYCAAVPLWDYKVFYYLLYDYWGQGTQVTVSS,low polyreactivity
20,QVQLVESGGGLVQAGGSLRLSCAASGITFPSYTMGWYRQAPGKERELVATIRNGGSTYYADSVKGRFTISRDNAKNTVYLQMNSLKPEDPAVYYCAAVPLWDYKFFYYLLYDYWGQGTQVTVSS,low polyreactivity
21,QVQLVESGGGLVQAGGSLRLSCAASGITFPSYVMGWYRQAPGKEREFVAAITGSAGSTYYADSVKGRFTISRDNAKNTVYLQMNSLKPADTAVYYCAARVRYVNPKYYYWGQGTQVTVSS,high polyreactivity
22,QVQLVESGGGLVQAGGSLRLSCAASGITFQHYSMGWYRQAPGKERELVAAISSSGGRTYYADSVKGRFTISRDNAKNTVYLQMNSLKPEDTAVYYCNGVDRYNRFDSWGQGTQVTVSS,high polyreactivity

row,Sequence,polyreactivity (PSR sort gate)
1,QVQLVESGGGLVQAGGSLRLSCAASGITFQKNAMGWYSQAPGKERELVAGITWRGSTYYADSVKGRFTISRDNAKNTVYLQRNSLKPEDTAVYYCAADPFSWYRSVRGEYWGQGTQVTVSS,low polyreactivity
2,QVQLVESGGGLVQAGGSLRLSCAASGITFQRYAMGWYRQAPGKERELVAAISTNGGTTYYADSVKGRFTISRDTAKNTVYLQMNSLKPEDTAVYYCNAESGYVYYIRYNYWGQGTQVTVSS,high polyreactivity
3,QVQLVESGGGLVQAGGSLRLSCAASGITFQSNDMGWYRQAPGKERELVAAISWSDDTTYYADSVKGRFTISRDNAKNTVYLQMNSLKPEDTAVYYCAAVYDSKSYYYWGQGTQVTVSS,high polyreactivity
4,QVQLVESGGGLVQAGGSLRLSCAASGITFQYYAMGWYRQAPGKERELVAAITSSGVSTYYADSVKGRFTISRDNAKNTVYLQMNSLKPEDTAVYYCNTVVRGWSSSAYDYWGQGTQVTVSS,low polyreactivity
5,QVQLVESGGGLVQAGGSLRLSCAASGITFQYYTMGWYRQAPGKERELVAAISWSTSSTYYADSVKGRFTISRDNAKNTVYLQMNSLKPEDTAVYYCAARYTTRRYYYWGQGTQVTVSS,high polyreactivity
6,QVQLVESGGGLVQAGGSLRLSCAASGITFRDNGMGWYRQAPGKESELVAAITSGGSTYYADSVKGRFTISRDNAKNTVYLQMNSLKPEDTAVYYCAAKRIKRRGWRQLSWYDSWGQGTQVTVSS,high polyreactivity
7,QVQLVESGGGLVQAGGSLRLSCAASGITFRFYAMGWYRQAPGKERELVAVISRGGGTTYYADSVKGRFTISRDNAKNTVYLHMNSLKPEDTAVYYCNAVIAWYRSDEYDYWGQGTQVTVSS,high polyreactivity
8,QVQLVESGGGLVQAGGSLRLSCAASGITFRGYAMGWYRQAPGKERELVATISYRGGNTYYADSVKGRFTISRDNAKNTVYLQMNSLKPEDTAVYYCARKYFRTSNLYGYWGQGTQVTVSS,high polyreactivity
9,QVQLVESGGGLVQAGGSLRLSCAASGITFRKYAMGWYRQAPGKERELVAGIRYSGSSTYYADSVKGRFTISRDNAKNTVYLQMNSLKPEDTAVYYCAVYGTTRYATTYDYWGQGTQVTVSS,high polyreactivity
10,QVQLVESGGGLVQAGGSLRLSCAASGITFRQYAMGWYRQAPGKERELVAVITSRGGTTYYADSVKGRFTISRDNAKNTVYLQMNSLKPEDTAVYYCAKVYGFPYYRAYFPERRNGYWGQGTQVTVSS,high polyreactivity
11,QVQLVESGGGLVQAGGSLRLSCAASGITFRRNAMGWSRQAHGQVRELVAAITRSGGSTYYADSVKGRFTISRDNAKNTVYLQMNSLKPEDTADYYCAADNTNDEDTGYYWGQGTQVTVSS,high polyreactivity
12,QVQLVESGGGLVQAGGSLRLSCAASGITFRRNAMGWYRQAPGKERELVAAISLSGTRTYYADSVKGRFTISRDNAKNTVYLQMNSLKPEDTAVYYCAASYYNKFDYWGQGTQVTVSS,high polyreactivity
13,QVQLVESGGGLVQAGGSLRLSCAASGITFRRNAMGWYRQAPGKERELVAAITSRGGSTYYADSVKGRFTISRDNAKNTVYLQMNSMKPEDTAVYYCNAGGVDRVDRDYWGQGTQVTVSS,high polyreactivity
14,QVQLVESGGGLVQAGGSLRLSCAASGITFRRYGMGWYRQAPGKERELVATITSSVGSRTYYADSVKGRFTISRDNAKNTVYLQMNSLKPEDTAVYYCAADHRVYDYEYWGQGTQVTVSS,low polyreactivity
15,QVQLVESGGGLVQAGGSLRLSCAASGITFRSYAMGWYRQAPGKERELVATISWSGGITYYADSVKGRFTISRDNAKNTVYLQMNSLKPEDTAFYYCAKASQSWGRVDYYYWGLGTQVTVSS,low polyreactivity
16,QVQLVESGGGLVQAGGSLRLSCAASGITFRSYDMGWYRQAPGTERELVAAISSTGRTYYADSVKGRFTISRDNAKNTVYLQMNSLKPEDTAVYYCARARSHYAYYWWNAGTGLDYWGQGTQVTVSS,high polyreactivity
17,QVQLVESGGGLVQAGGSLRLSCAASGITFRSYVMGWYRQAPGKEMEFVAVITKSGGSTYYADSVKGRFTISRDNAMNTVYLQMNSLKPEDTAVYYCGAEYARSSRYKISSEMYYWGQGTQVTVSS,high polyreactivity
18,QVQLVESGGGLVQAGGSLRLSCAASGITFRTNAMGWYRQAPGKERELVAAITTNGGNTYYADSVKGRFTISRDNAKNTVYLQMNSLKPEDTAVYYCNTATYVDSFPDPGDHWGQGTQVTVSS,low polyreactivity
19,QVQLVESGGGLVQAGGSLRLSCAASGITFRWYAMGWYRQAPGKERELVAAISTSGTRTYYADSVKGRFTISRDNAKNTVYLLMNSLKPEDTAVYYCAADYGRQLGRYGFGYWGQGTQVSVSS,high polyreactivity
20,QVQLVESGGGLVQAGGSLRLSCAASGITFRWYTMGWYRQAPGKERELVAAITSSGARTYYADSVKGRFTISRDNAKNTVYLQMNSLKPEDTAVYYCAATQTRFAAKDEYWGQGTQVTVSS,high polyreactivity
21,QVQLVESGGGLVQAGGSLRLSCAASGITFRYFAMGWYRQAPGKERELVAAITRSGSTTYADSVKGRFTISRDNAKNTVYLQMNSLKPEDTAVYYCAVDYYYLTGGVDYWGQGTQVTVSS,low polyreactivity
